In the data set the test system is Escherichia coli TOP10. Nature of the data set: shrunken log2 fold change of peptide-encoding DNA abundance (4.5 h post-induction vs induction); higher = less antimicrobial activity (less host growth inhibition). As to conditions: time post-induction: 4.5 h; library: site-saturation at positions 5, 18, 19, 20.
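Also: peptides expressed intracellularly from a pBAD plasmid library in pooled LB shake-flask culture, induced with 0.3% L-arabinose, DNA abundance read by NGS, three biological replicates, DESeq2 with apeglm shrinkage.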

Turning to RRIRGRPPRLPRPRPRPIFMPRP, the “shrunken log2 fold change” value stood at 0.283.

For the sequence RRIRYRPPRLPRPRPRPRKGPRP, the “shrunken log2 fold change” value is -0.013. In the case of RRIRARPPRLPRPRPRPRGWPRP, the “shrunken log2 fold change” value was found to be 1.07. As for RRIRIRPPRLPRPRPRPAPHPRP, the “shrunken log2 fold change” value is -0.0179. To RRIRYRPPRLPRPRPRPEFAPRP belongs -0.167; to RRIRLRPPRLPRPRPRPHDGPRP, 0.0171; to RRIRFRPPRLPRPRPRPGLRPRP, 0.23. Next, RRIRKRPPRLPRPRPRPHWIPRP: -0.0313; RRIRVRPPRLPRPRPRPLKAPRP: 0.157. To RRIRYRPPRLPRPRPRPEPVPRP belongs -0.00973. As to RRIRRRPPRLPRPRPRPFTHPRP, the “shrunken log2 fold change” value was -0.174.

For RRIRLRPPRLPRPRPRPGKIPRP, the “shrunken log2 fold change” value was -0.125. Next, RRIRWRPPRLPRPRPRPFYLPRP: -0.336; RRIRNRPPRLPRPRPRPWKKPRP: -0.0178; RRIRERPPRLPRPRPRPMTMPRP: -0.136. Regarding RRIRERPPRLPRPRPRPYIRPRP, the “shrunken log2 fold change” value was -1.16. On to RRIRPRPPRLPRPRPRPPLCPRP, for which the “shrunken log2 fold change” value is 0.281. On to RRIRERPPRLPRPRPRPVKMPRP, for which the “shrunken log2 fold change” value was -0.0989. Next, RRIRTRPPRLPRPRPRPESPPRP: 0.305; RRIRQRPPRLPRPRPRPGLEPRP: 0.134; RRIRKRPPRLPRPRPRPHNAPRP: 0.0979.

With RRIRLRPPRLPRPRPRPFVVPRP, the “shrunken log2 fold change” value was -0.236. Next, RRIRRRPPRLPRPRPRPYLSPRP: -0.288. In the case of RRIRNRPPRLPRPRPRPRPPPRP, the “shrunken log2 fold change” value was found to be 1.26. Next, RRIRHRPPRLPRPRPRPACQPRP: 0.0463; RRIRERPPRLPRPRPRPYCFPRP: -0.511; RRIRARPPRLPRPRPRPLRIPRP: 2.9. Next, RRIRQRPPRLPRPRPRPQKSPRP: 0.0118; RRIRDRPPRLPRPRPRPRLVPRP: 0.314; RRIRVRPPRLPRPRPRPGRPPRP: 0.63. To RRIRLRPPRLPRPRPRPHVSPRP belongs 0.00444.

RRIRIRPPRLPRPRPRPDHEPRP: the “shrunken log2 fold change” value was 0.147.

RRIRKRPPRLPRPRPRPQWCPRP: the “shrunken log2 fold change” value was determined as 0.149. To RRIRWRPPRLPRPRPRPTWMPRP belongs -0.029. In the case of RRIRRRPPRLPRPRPRPRENPRP, the “shrunken log2 fold change” value came out at 0.135. On to RRIRVRPPRLPRPRPRPWCHPRP, for which the “shrunken log2 fold change” value was -0.291.

As for RRIRPRPPRLPRPRPRPAVLPRP, the “shrunken log2 fold change” value turned out to be 0.163. Next, RRIRQRPPRLPRPRPRPQKCPRP: -0.00409; RRIRIRPPRLPRPRPRPKMTPRP: 0.123; RRIRNRPPRLPRPRPRPLKMPRP: -0.136. Next, RRIRDRPPRLPRPRPRPIRMPRP: -0.0588; RRIRNRPPRLPRPRPRPNISPRP: -0.476. To RRIRPRPPRLPRPRPRPFDKPRP belongs -0.0386; to RRIRSRPPRLPRPRPRPHVRPRP, 0.128. Turning to RRIRTRPPRLPRPRPRPLQCPRP, the “shrunken log2 fold change” value came to 0.174. Next, RRIRPRPPRLPRPRPRPVYFPRP: -0.671; RRIRGRPPRLPRPRPRPMGKPRP: 0.375. Next, RRIRARPPRLPRPRPRPWRQPRP: 0.0426; RRIRGRPPRLPRPRPRPGESPRP: 0.584; RRIRWRPPRLPRPRPRPQFDPRP: 0.0373. To RRIRPRPPRLPRPRPRPKDDPRP belongs -0.0737.

RRIRDRPPRLPRPRPRPCYSPRP: the “shrunken log2 fold change” value is -0.0729.

Consider RRIRHRPPRLPRPRPRPYKYPRP, for which the “shrunken log2 fold change” value was -0.128. Next, RRIRLRPPRLPRPRPRPRNDPRP: -0.142; RRIRHRPPRLPRPRPRPCCRPRP: -0.276. Next, RRIRWRPPRLPRPRPRPCLRPRP: 0.0809.

In the case of RRIRNRPPRLPRPRPRPVMAPRP, the “shrunken log2 fold change” value turned out to be 0.156.

As for RRIRMRPPRLPRPRPRPACAPRP, the “shrunken log2 fold change” value was 0.837. On to RRIRRRPPRLPRPRPRPYMSPRP, for which the “shrunken log2 fold change” value is -0.054. In the case of RRIRKRPPRLPRPRPRPTCSPRP, the “shrunken log2 fold change” value worked out at 0.281. Next, RRIRNRPPRLPRPRPRPRSMPRP: -0.365; RRIRDRPPRLPRPRPRPELNPRP: 1.04. Turning to RRIRNRPPRLPRPRPRPVHQPRP, the “shrunken log2 fold change” value was -0.121.

For RRIRFRPPRLPRPRPRPGFKPRP, the “shrunken log2 fold change” value is 0.122. Next, RRIRDRPPRLPRPRPRPRPMPRP: 0.583; RRIRDRPPRLPRPRPRPRTKPRP: 0.16. As for RRIRQRPPRLPRPRPRPHPRPRP, the “shrunken log2 fold change” value turned out to be 0.575.

Take RRIRLRPPRLPRPRPRPRMMPRP: the “shrunken log2 fold change” value amounted to 0.189. In the case of RRIRFRPPRLPRPRPRPSRYPRP, the “shrunken log2 fold change” value was -0.0764. On to RRIRNRPPRLPRPRPRPQGHPRP, for which the “shrunken log2 fold change” value was -0.296.

Turning to RRIRTRPPRLPRPRPRPQKYPRP, the “shrunken log2 fold change” value was -0.263. To RRIRSRPPRLPRPRPRPDKCPRP belongs -0.173. On to RRIRIRPPRLPRPRPRPKRTPRP, for which the “shrunken log2 fold change” value is -0.198. To RRIRCRPPRLPRPRPRPIWQPRP belongs 0.102.

For the sequence RRIRNRPPRLPRPRPRPEAVPRP, the “shrunken log2 fold change” value was 0.0335.

As for RRIRKRPPRLPRPRPRPQHVPRP, the “shrunken log2 fold change” value was -0.124. Next, RRIRPRPPRLPRPRPRPPCGPRP: 0.254; RRIRNRPPRLPRPRPRPTVQPRP: -0.179; RRIRVRPPRLPRPRPRPKEGPRP: 0.0282.

RRIRERPPRLPRPRPRPWGWPRP: the “shrunken log2 fold change” value came to 0.173. To RRIRNRPPRLPRPRPRPEELPRP belongs 0.678. Turning to RRIRDRPPRLPRPRPRPDPAPRP, the “shrunken log2 fold change” value is 0.304. RRIRRRPPRLPRPRPRPVIYPRP: the “shrunken log2 fold change” value worked out at 0.0526. To RRIRKRPPRLPRPRPRPMFWPRP belongs 0.173. Next, RRIRMRPPRLPRPRPRPRLNPRP: 0.305; RRIRWRPPRLPRPRPRPQNAPRP: -0.182.

In the case of RRIRIRPPRLPRPRPRPRINPRP, the “shrunken log2 fold change” value is -0.482. As to RRIRNRPPRLPRPRPRPHHRPRP, the “shrunken log2 fold change” value is 0.0742. To RRIRDRPPRLPRPRPRPHPPPRP belongs 0.402. To RRIRCRPPRLPRPRPRPYTPPRP belongs -1.23; to RRIRDRPPRLPRPRPRPCTQPRP, 0.0408.

Values taken from the supplement of paper PMC9112550, “Optimization of the antimicrobial peptide Bac7 by deep mutational scanning” (BMC Biology, 2022).
